Assay results reported in patent publication US9388233.

Molecular target: I-SceI mutants selected from G13/P14/N15/K20 saturation library (UniProt P03882)
Experiment: cell_activity
Conditions: first selection round, library pool; individual mutants not given

UniProt P03882, sequence (P03882 whole entry, change not shown): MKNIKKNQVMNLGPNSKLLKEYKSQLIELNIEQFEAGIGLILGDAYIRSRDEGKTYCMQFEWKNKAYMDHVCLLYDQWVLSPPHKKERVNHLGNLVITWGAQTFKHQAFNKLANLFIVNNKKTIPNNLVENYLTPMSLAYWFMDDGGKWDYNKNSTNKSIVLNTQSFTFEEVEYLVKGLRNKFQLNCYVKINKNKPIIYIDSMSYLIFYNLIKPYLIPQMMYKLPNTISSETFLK

TAGGGATAACAGGGGTCT (double strand) [T3i1]
activity (fold cell survival vs wild type): 10
